Like-named read-outs stand apart in the source and are kept apart here.
Columns and labels:
Experiment in all cases: ITC
[1] = biological target: mouse CSL core domain (residues 53-474), wild type (mouse) (UniProt P31266)
[2] = biological target: mouse CSL core domain (residues 53-474), wild type (mouse) (UniProt P31266); remark: listed apart in the source
[3] = biological target: BTD of mouse CSL (residues 203-393) (mouse) (UniProt P31266)
[4] = biological target: mouse CSL core domain (53-474) mutant A284R (mouse) (UniProt P31266)
[5] = biological target: mouse CSL core domain (53-474) mutant F261R (mouse) (UniProt P31266)
[6] = biological target: mouse CSL core domain (53-474) mutant Q333R (mouse) (UniProt P31266)
[7] = biological target: mouse CSL core domain (53-474) mutant V263R (mouse) (UniProt P31266)
[8] = biological target: mouse CSL core domain (residues 53-474), wild type (mouse) (UniProt P31266); remark: listed apart in the source
[9] = biological target: mouse CSL core domain (residues 53-474), wild type (mouse) (UniProt P31266); remark: listed apart in the source
[10] = biological target: mouse CSL core domain (residues 53-474), wild type (mouse, UniProt P31266 53-474)
Chain of mouse CSL core domain (residues 53-474), wild type (P31266 53-474): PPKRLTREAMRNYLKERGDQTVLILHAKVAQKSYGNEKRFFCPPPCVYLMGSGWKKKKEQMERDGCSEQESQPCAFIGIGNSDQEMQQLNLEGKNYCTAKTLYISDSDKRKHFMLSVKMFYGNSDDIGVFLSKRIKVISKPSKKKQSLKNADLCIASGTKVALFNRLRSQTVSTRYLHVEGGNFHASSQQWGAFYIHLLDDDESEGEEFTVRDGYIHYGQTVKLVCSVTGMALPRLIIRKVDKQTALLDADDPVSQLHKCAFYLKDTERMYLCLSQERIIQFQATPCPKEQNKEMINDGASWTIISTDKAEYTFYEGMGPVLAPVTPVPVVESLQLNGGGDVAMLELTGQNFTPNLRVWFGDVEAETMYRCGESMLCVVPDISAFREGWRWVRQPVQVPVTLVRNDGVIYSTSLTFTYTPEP

Chain of mouse CSL core domain (residues 53-474), wild type (mouse) (P31266 53-474): as above
Chain of mouse CSL core domain (53-474) mutant V263R (mouse) (P31266 53-474 V263R): as the sequence (P31266 53-474) above, with V211R counted along it
Chain of mouse CSL core domain (53-474) mutant Q333R (mouse) (P31266 53-474 Q333R): as the sequence (P31266 53-474) above, with Q281R counted along it
Chain of mouse CSL core domain (53-474) mutant F261R (mouse) (P31266 53-474 F261R): as the sequence (P31266 53-474) above, with F209R counted along it
Chain of mouse CSL core domain (53-474) mutant A284R (mouse) (P31266 53-474 A284R): as the sequence (P31266 53-474) above, with A232R counted along it
Chain of BTD of mouse CSL (residues 203-393) (mouse) (P31266 203-393): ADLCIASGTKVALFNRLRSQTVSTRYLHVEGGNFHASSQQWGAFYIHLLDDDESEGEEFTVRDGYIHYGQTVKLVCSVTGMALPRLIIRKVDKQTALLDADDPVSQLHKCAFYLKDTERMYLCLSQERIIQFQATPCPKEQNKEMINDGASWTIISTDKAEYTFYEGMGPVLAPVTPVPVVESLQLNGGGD

Molecule: KyoT2 KD196AA (in the construct 184-210) (peptide)
- Ka [1]: 1.2e+08 M⁻¹
- Kd [1]: 12 nM
- dH [1]: -16 kcal/mol

Molecule: KyoT2 V186A (in the construct 184-210) (peptide)
- Kd [1]: 69 nM
- dH [1]: -13.7 kcal/mol

Molecule: RAM domain of Notch1, mutant Q1763A (from UniProt P46531 19-2555) (domain or fragment)
- Ka [1]: 2e+07 M⁻¹
- Kd [1]: 22 nM
- dH [1]: -7.5 kcal/mol

Molecule: RAM domain of Notch1, wild type (from UniProt P46531 19-2555) (domain or fragment)
- Ka [1]: 6.8e+07 M⁻¹
- Kd [1]: 15 nM
- dH [1]: -18.2 kcal/mol

Molecule: mouse KyoT2 (residues 182-210) (peptide)
- Ka [1]: 7.1e+07 M⁻¹
- Kd [1]: 15 nM
- dH [1]: -16 kcal/mol

Molecule: mouse KyoT2 (residues 184-200) (peptide)
- Ka [1]: 3.1e+07 M⁻¹
- dH [1]: -13.1 kcal/mol

Molecule: mouse KyoT2 (residues 184-210) (peptide)
- Ka [2]: 1.1e+08 M⁻¹
- Kd [2]: 11 nM
- dH [2]: -11 kcal/mol
- Kd [3]: 26 nM
- dH [3]: -13.6 kcal/mol
- Kd [4]: 7200 nM
- dH [4]: -10.5 kcal/mol
- Ka [5]: 340000 M⁻¹
- Kd [5]: 6300 nM
- dH [5]: -5.6 kcal/mol
- Ka [6]: 2e+07 M⁻¹
- Kd [6]: 51 nM
- dH [6]: -11.7 kcal/mol
- Ka [7]: 3.1e+07 M⁻¹
- Kd [7]: 19 nM
- dH [7]: -12.9 kcal/mol
- Ka [1]: 8.5e+07 M⁻¹
- Kd [1]: 12 nM
- dH [1]: -15.5 kcal/mol
- stoichiometry N [1]: 1
- Ka [8]: 9.4e+07 M⁻¹
- Kd [8]: 11 nM
- dH [8]: -14.6 kcal/mol

B1: KyoT2 tetrapeptide VWWP (residues 190-193) (peptide)
peptide: VWWP
- Kd [9]: 8000 nM

B2: KyoT2 peptide KAPVWWPMKD (residues 187-196) (peptide)
peptide: KAPVWWPMKD
- fold enhancement in binding against the peptide APVWWPMK [10]: ~40 fold

B3: KyoT2 peptide APVWWPMK (residues 188-195) (peptide)
peptide: APVWWPMK
- binding result [10]: binds

— PMC3947186 (Structure (London, England : 1993), 2013)
